Assay results taken from patent publication US7939292B2, “Modified heparinase III and methods of sequencing therewith” (Massachusetts Institute of Technology, priority 2000, dated 2011).

Experiment: Heparinase III kinetic assay of r-heparinase III and histidine mutants
Assay type: biochemical
Conditions: for kcat / Km: heparan sulfate; for Km: calculated assuming a molecular weight of 15 kDa
Experimental: The activity of heparinase III was measured using a UV 232 nm assay similar to those reported for heparinase I and heparinase II (Godavarti, R., Cooney, C. L., Langer, R., and Sasisekharan, R. (1996) Biochemistry 35, 6846-52; Shriver, Z., Hu, Y., and Sasisekharan, R. (1998) J. Biol. Chem. 273, 10160-67; and Lohse, D. and Linhardt, R. J. (1992) J. Biol. Chem. 267, 781-87). Briefly, the increase in absorbance at 232 nm as a function of time was monitored under saturating substrate conditions. All assays were performed with heparan sulfate at a concentration of 2 mg/ml in 50 mM sodium phosphate, pH 7.6. The temperature for enzymatic activity measurements was kept constant at 35° C.
In parallel to the mapping studies and to confirm the results of the chemical modification experiments, each of the thirteen histidine residues present in heparinase III was mutated to alanine. The recombinant heparinase III mutant proteins were expressed, purified, and assessed for enzymatic activity towards heparan sulfate (Table 2).

Molecule	changes in recombinant protein yield, enzyme activity, or kinetic parameters compared with r-heparinase III	kcat [s⁻¹]	Km [µM]
H36A: recombinant heparinase III with histidine 36 mutated to alanine (protein) MTTKIFKRIIVFAVIALSSGNILAQSSSITRKDFDAINLEYSGLEKVNKAVAAGNYDDAAKALLAYYREKSKAREPDFSNAEKPADIRQPIDKVTREMADKALVHQFQPHKGYGYFDYGKDINWQMWPVKDNEVRWQLHRVKWWQAMALVYHATGDEKYAREWVYQYSDWARKNPLGLSQDNDKFVWRPLEVSDRVQSLPPTFSLFVNSPAFTPAFLMEFLNSYHQQADYLSTHYAEQGNHRLFEAQRNLFAGVSFPEFKDSPRWRQTGISVLNTEIKKQVYADGMQFELSPIYHVAAIDIFLKAYGSAKRVNLEKEFPQSYVQTVENMIMALISISLPDYNTPMFGDSWITDKNFRMAQFASWARVFPANQAIKYFATDGKQGKAPNFLSKALSNAGFYTFRSGWDKNATVMVLKASPPGEFHAQPDNGTFELFIKGRNFTPDAGVFVYSGDEAIMKLRNWYRQTRIHSTLTLDNQNMVITKARQNKWETGNNLDVLTYTNPSYPNLDHQRSVLFINKKYFLVIDRAIGEATGNLGVHWQLKEDSNPVFDKTKNRVYTTYRDGNNLMIQSLNADRTSLNEEEGKVSYVYNKELKRPAFVFEKPKKNAGTQNFVSIVYPYDGQKAPEISIRENKGNDFEKGKLNLTLTINGKQQLVLVP	no significant changes	86	98
H152A: recombinant heparinase III with histidine 152 mutated to alanine (protein) MTTKIFKRIIVFAVIALSSGNILAQSSSITRKDFDHINLEYSGLEKVNKAVAAGNYDDAAKALLAYYREKSKAREPDFSNAEKPADIRQPIDKVTREMADKALVHQFQPHKGYGYFDYGKDINWQMWPVKDNEVRWQLHRVKWWQAMALVYAATGDEKYAREWVYQYSDWARKNPLGLSQDNDKFVWRPLEVSDRVQSLPPTFSLFVNSPAFTPAFLMEFLNSYHQQADYLSTHYAEQGNHRLFEAQRNLFAGVSFPEFKDSPRWRQTGISVLNTEIKKQVYADGMQFELSPIYHVAAIDIFLKAYGSAKRVNLEKEFPQSYVQTVENMIMALISISLPDYNTPMFGDSWITDKNFRMAQFASWARVFPANQAIKYFATDGKQGKAPNFLSKALSNAGFYTFRSGWDKNATVMVLKASPPGEFHAQPDNGTFELFIKGRNFTPDAGVFVYSGDEAIMKLRNWYRQTRIHSTLTLDNQNMVITKARQNKWETGNNLDVLTYTNPSYPNLDHQRSVLFINKKYFLVIDRAIGEATGNLGVHWQLKEDSNPVFDKTKNRVYTTYRDGNNLMIQSLNADRTSLNEEEGKVSYVYNKELKRPAFVFEKPKKNAGTQNFVSIVYPYDGQKAPEISIRENKGNDFEKGKLNLTLTINGKQQLVLVP	no significant changes	83	58
H241A: recombinant heparinase III with histidine 241 mutated to alanine (protein) MTTKIFKRIIVFAVIALSSGNILAQSSSITRKDFDHINLEYSGLEKVNKAVAAGNYDDAAKALLAYYREKSKAREPDFSNAEKPADIRQPIDKVTREMADKALVHQFQPHKGYGYFDYGKDINWQMWPVKDNEVRWQLHRVKWWQAMALVYHATGDEKYAREWVYQYSDWARKNPLGLSQDNDKFVWRPLEVSDRVQSLPPTFSLFVNSPAFTPAFLMEFLNSYHQQADYLSTHYAEQGNARLFEAQRNLFAGVSFPEFKDSPRWRQTGISVLNTEIKKQVYADGMQFELSPIYHVAAIDIFLKAYGSAKRVNLEKEFPQSYVQTVENMIMALISISLPDYNTPMFGDSWITDKNFRMAQFASWARVFPANQAIKYFATDGKQGKAPNFLSKALSNAGFYTFRSGWDKNATVMVLKASPPGEFHAQPDNGTFELFIKGRNFTPDAGVFVYSGDEAIMKLRNWYRQTRIHSTLTLDNQNMVITKARQNKWETGNNLDVLTYTNPSYPNLDHQRSVLFINKKYFLVIDRAIGEATGNLGVHWQLKEDSNPVFDKTKNRVYTTYRDGNNLMIQSLNADRTSLNEEEGKVSYVYNKELKRPAFVFEKPKKNAGTQNFVSIVYPYDGQKAPEISIRENKGNDFEKGKLNLTLTINGKQQLVLVP	no significant changes	5	16
H234A: recombinant heparinase III with histidine 234 mutated to alanine (protein) MTTKIFKRIIVFAVIALSSGNILAQSSSITRKDFDHINLEYSGLEKVNKAVAAGNYDDAAKALLAYYREKSKAREPDFSNAEKPADIRQPIDKVTREMADKALVHQFQPHKGYGYFDYGKDINWQMWPVKDNEVRWQLHRVKWWQAMALVYHATGDEKYAREWVYQYSDWARKNPLGLSQDNDKFVWRPLEVSDRVQSLPPTFSLFVNSPAFTPAFLMEFLNSYHQQADYLSTAYAEQGNHRLFEAQRNLFAGVSFPEFKDSPRWRQTGISVLNTEIKKQVYADGMQFELSPIYHVAAIDIFLKAYGSAKRVNLEKEFPQSYVQTVENMIMALISISLPDYNTPMFGDSWITDKNFRMAQFASWARVFPANQAIKYFATDGKQGKAPNFLSKALSNAGFYTFRSGWDKNATVMVLKASPPGEFHAQPDNGTFELFIKGRNFTPDAGVFVYSGDEAIMKLRNWYRQTRIHSTLTLDNQNMVITKARQNKWETGNNLDVLTYTNPSYPNLDHQRSVLFINKKYFLVIDRAIGEATGNLGVHWQLKEDSNPVFDKTKNRVYTTYRDGNNLMIQSLNADRTSLNEEEGKVSYVYNKELKRPAFVFEKPKKNAGTQNFVSIVYPYDGQKAPEISIRENKGNDFEKGKLNLTLTINGKQQLVLVP	no significant changes	23	75
H469A: recombinant heparinase III with histidine 469 mutated to alanine (protein) MTTKIFKRIIVFAVIALSSGNILAQSSSITRKDFDHINLEYSGLEKVNKAVAAGNYDDAAKALLAYYREKSKAREPDFSNAEKPADIRQPIDKVTREMADKALVHQFQPHKGYGYFDYGKDINWQMWPVKDNEVRWQLHRVKWWQAMALVYHATGDEKYAREWVYQYSDWARKNPLGLSQDNDKFVWRPLEVSDRVQSLPPTFSLFVNSPAFTPAFLMEFLNSYHQQADYLSTHYAEQGNHRLFEAQRNLFAGVSFPEFKDSPRWRQTGISVLNTEIKKQVYADGMQFELSPIYHVAAIDIFLKAYGSAKRVNLEKEFPQSYVQTVENMIMALISISLPDYNTPMFGDSWITDKNFRMAQFASWARVFPANQAIKYFATDGKQGKAPNFLSKALSNAGFYTFRSGWDKNATVMVLKASPPGEFHAQPDNGTFELFIKGRNFTPDAGVFVYSGDEAIMKLRNWYRQTRIASTLTLDNQNMVITKARQNKWETGNNLDVLTYTNPSYPNLDHQRSVLFINKKYFLVIDRAIGEATGNLGVHWQLKEDSNPVFDKTKNRVYTTYRDGNNLMIQSLNADRTSLNEEEGKVSYVYNKELKRPAFVFEKPKKNAGTQNFVSIVYPYDGQKAPEISIRENKGNDFEKGKLNLTLTINGKQQLVLVP	no significant changes	100	71
H225A: recombinant heparinase III with histidine 225 mutated to alanine (protein) MTTKIFKRIIVFAVIALSSGNILAQSSSITRKDFDHINLEYSGLEKVNKAVAAGNYDDAAKALLAYYREKSKAREPDFSNAEKPADIRQPIDKVTREMADKALVHQFQPHKGYGYFDYGKDINWQMWPVKDNEVRWQLHRVKWWQAMALVYHATGDEKYAREWVYQYSDWARKNPLGLSQDNDKFVWRPLEVSDRVQSLPPTFSLFVNSPAFTPAFLMEFLNSYAQQADYLSTHYAEQGNHRLFEAQRNLFAGVSFPEFKDSPRWRQTGISVLNTEIKKQVYADGMQFELSPIYHVAAIDIFLKAYGSAKRVNLEKEFPQSYVQTVENMIMALISISLPDYNTPMFGDSWITDKNFRMAQFASWARVFPANQAIKYFATDGKQGKAPNFLSKALSNAGFYTFRSGWDKNATVMVLKASPPGEFHAQPDNGTFELFIKGRNFTPDAGVFVYSGDEAIMKLRNWYRQTRIHSTLTLDNQNMVITKARQNKWETGNNLDVLTYTNPSYPNLDHQRSVLFINKKYFLVIDRAIGEATGNLGVHWQLKEDSNPVFDKTKNRVYTTYRDGNNLMIQSLNADRTSLNEEEGKVSYVYNKELKRPAFVFEKPKKNAGTQNFVSIVYPYDGQKAPEISIRENKGNDFEKGKLNLTLTINGKQQLVLVP	no significant changes	22	80
H424A: recombinant heparinase III with histidine 424 mutated to alanine (protein) MTTKIFKRIIVFAVIALSSGNILAQSSSITRKDFDHINLEYSGLEKVNKAVAAGNYDDAAKALLAYYREKSKAREPDFSNAEKPADIRQPIDKVTREMADKALVHQFQPHKGYGYFDYGKDINWQMWPVKDNEVRWQLHRVKWWQAMALVYHATGDEKYAREWVYQYSDWARKNPLGLSQDNDKFVWRPLEVSDRVQSLPPTFSLFVNSPAFTPAFLMEFLNSYHQQADYLSTHYAEQGNHRLFEAQRNLFAGVSFPEFKDSPRWRQTGISVLNTEIKKQVYADGMQFELSPIYHVAAIDIFLKAYGSAKRVNLEKEFPQSYVQTVENMIMALISISLPDYNTPMFGDSWITDKNFRMAQFASWARVFPANQAIKYFATDGKQGKAPNFLSKALSNAGFYTFRSGWDKNATVMVLKASPPGEFAAQPDNGTFELFIKGRNFTPDAGVFVYSGDEAIMKLRNWYRQTRIHSTLTLDNQNMVITKARQNKWETGNNLDVLTYTNPSYPNLDHQRSVLFINKKYFLVIDRAIGEATGNLGVHWQLKEDSNPVFDKTKNRVYTTYRDGNNLMIQSLNADRTSLNEEEGKVSYVYNKELKRPAFVFEKPKKNAGTQNFVSIVYPYDGQKAPEISIRENKGNDFEKGKLNLTLTINGKQQLVLVP	no significant changes	24	59
